The target of the assay is T1, amylin receptor (rat), P32214.
T1 chain 1: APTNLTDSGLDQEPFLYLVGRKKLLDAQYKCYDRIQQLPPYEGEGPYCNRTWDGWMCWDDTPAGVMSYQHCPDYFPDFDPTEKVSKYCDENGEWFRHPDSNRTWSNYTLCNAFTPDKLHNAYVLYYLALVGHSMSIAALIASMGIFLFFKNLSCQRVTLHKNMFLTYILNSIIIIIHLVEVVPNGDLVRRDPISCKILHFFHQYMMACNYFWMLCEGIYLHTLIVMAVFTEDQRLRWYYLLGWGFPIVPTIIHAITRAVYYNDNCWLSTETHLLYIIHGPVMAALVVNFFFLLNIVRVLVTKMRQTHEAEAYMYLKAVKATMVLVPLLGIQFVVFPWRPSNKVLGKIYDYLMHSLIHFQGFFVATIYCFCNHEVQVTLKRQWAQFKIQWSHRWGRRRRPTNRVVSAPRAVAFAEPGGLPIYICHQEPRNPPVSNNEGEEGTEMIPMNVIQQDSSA
T1 chain 2: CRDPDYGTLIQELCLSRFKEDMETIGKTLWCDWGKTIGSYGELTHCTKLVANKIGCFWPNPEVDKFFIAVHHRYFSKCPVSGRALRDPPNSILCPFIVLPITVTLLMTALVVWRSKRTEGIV

By IC50 is commonly meant the concentration that inhibits the measured activity by half.

DFMGWMDFGKRKCNTATCATQRLANELVRLQTYPRTNVGSNTY (modifications not checked) [DF(P-CH2SO3)… …] yielded an IC50 of 83 pM.

For the origin of these results see US20120253023A1.
